Measurements as given in patent publication US20120100132A1 (INDUSTRIAL TECHNOLOGY RESEARCH INSTITUTE, published 2012).

Molecular target: T1, uncleavable form of transmembrane TNF-α (deletion mutant, amino acids +1 through +12 deleted) expressed on … (UniProt P01375 1-233)
T1 construct: whole, on cells; The deletion of +1 to +12 cannot be written as substitutions, so it is described under detail; also called deletion mutant transmembrane TNF-α resistant to TACE-mediated cleavage
Assay: flow cytometry saturation binding on transmembrane TNF-α-transfected NS0 cells
Procedure: Transmembrane TNF-α-transfected NS0 cells were incubated with serial log dilutions of m357-IgG (∘) or h357-IgG antibodies for 1 hr at 4° C. The cells were washed and incubated with Alexa Fluor 488 goat anti-mouse IgG (H+L) for m357-IgG and Alexa Fluor 647 goat anti-human IgG (H+L) for h357-IgG, respectively for 1 hr at 4° C. The cell were then washed and analyzed by a FACSCalibur flow cytometer; and
Transmembrane TNF-α transfected NS0 cells were incubated with serial log dilutions of m357 IgG and h357 IgG for 1 hour at 4° C. in phosphate buffered saline (PBS) containing 2% of a fetal bovine serum (fluorescence-activated cell sorting [FACS] buffer). Cells were washed with a FACS buffer 3 times and were then stained with an Alexa Fluor 488 goat anti-mouse IgG (H+L) for m357 IgG and an Alexa Fluor 647 goat anti-human IgG (H+L) for h357 IgG, respectively for 1 hour at 4° C. Fluorescence intensities were measured using a FACSCalibur flow cytometer (Becton Dickinson, San Jose, Calif.).
TNF-α exists as a membrane associated precursor (transmembrane TNF-α) from which a mature soluble form is released by proteolytic cleavage mediated by the TNF-α converting enzyme (TACE). […]

Kd: 12 nM
B1: m357 IgG (murine anti-human TNF-α monoclonal antibody from hybridoma 357-104-4, ECACC No. 92030603) (antibody, V domains shown)
VH: VKLQESGGGWVQPGGSMKLSCIASGFTFSNYWMNWVRQSPEKGLEWVAEVRLQSDNFTTHYAESVKGRFTISRDDSKSGVYLQMNNLGAEDTGIYYCTPFAYWGQGTTVTVSS
VL: EIVLTQSPPITSASPGEKVTMTCSASSSVSFMYWYQQKPGSSPRLLIYDASILASGVPVRFSGSGSGTSYSLTISRMEAEDVATYYCQQWSDYSPRTFGGGTKLEIK
notes: Whole murine IgG; also called m35-IgG
